Assay results published in patent US20260007740A1 (SPYBIOTECH, published 2026).

Target: T1, SpyCatcher-HBsAg (Hepatitis B virus (adw serotype) for …)
T1 construct: Expressed in Pichia pastoris; also called HBsAg VLP monomer; SpyCatcher-HBsAg VLP
Experiment: isopeptide conjugation in TBS, followed by SDS-PAGE and Western blot

B1: RSV-F-SpyTag (RSV-F Sc9-10 DS-Cav1 A149C Y458C-SpyTag-Ctag) (other)
chain: QNITEEFYQSTCSAVSKGYLSALRTGWYTSVITIELSNIKENKCNGTDAKVKLIKQELDKYKNAVTELQLLMQSTPATGSGSAICSGVAVCKVLHLEGEVNKIKSALLSTNKAVVSLSNGVSVLTFKVLDLKNYIDKQLLPILNKQSCSISNIETVIEFQQKNNRLLEITREFSVNAGVTTPVSTYMLTNSELLSLINDMPITNDQKKLMSNNVQIVRQQSYSIMCIIKEEVLAYVVQLPLYGVIDTPCWKLHTSPLCTTNTKEGSNICLTRTDRGWYCDNAGSVSFFPQAETCKVQSNRVFCDTMNSRTLPSEVNLCNVDIFNPKYDCKIMTSKTDVSSSVITSLGAIVSCYGKTKCTASNKNRGIIKTFSNGCDYVSNKGVDTVSVGNTLYCVNKQEGKSLYVKGEPIINFYDPLVFPSDEFDASISQVNEKINQSLAFIRKSDELLSAIGGYIPEAPRDGQAYVRKDGEWVLLSTFLGSGGSGAHIVMVDAYKPTKEPEA
notes: Pre-fusion-stabilised single-chain RSV F with T4 fibritin trimerisation motif; Expressed in ExpiCHO cells, purified through the C-tag; also called RSV-F-SpyTag-Ctag; RSF-F-SpyTag
binding result: binds
